This is an account of results in PMC6330309, “Multispecific Antibody Development Platform Based on Human Heavy Chain Antibodies” (Frontiers in Immunology, 2018).

For this assay, the target named is T1, extracellular domain of human BCMA (Homo sapiens, UniProt Q02223).
T1 construct: B cell maturation antigen (BCMA), human, extracellular domain; PDB 4ZFO chain F was only the search model for molecular replacement; For the Octet experiments the methods say that antigens were either expressed in-house (ECD with His-tag) or commercially available
T1 sequence (Q02223 1-54): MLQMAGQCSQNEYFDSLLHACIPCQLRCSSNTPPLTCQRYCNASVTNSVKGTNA
In words: crystal structure; BCMA and UniAb VH mixed at a 1:2 molar ratio for 20 min at 4°C, complex isolated by SEC (20 mM PBS, 250 mM NaCl); sitting drop vapor diffusion, 0.2 M sodium malonate pH 4.0, 20% PEG 3350; 2.6 Å; two complexes in the asymmetric unit. As to conditions: both partners purified. For orientation: SEC sorts molecules by how far they enter the pores of the column.

B1: anti-BCMA UniAb VH (IgHV3-23) (VHH)
VHH: EVQLVESGGGLVQPGGSLRLSCAASGFTVSSYGMSWVRQAPGKGPEWVSGIRGSDGSTYYADSVKGRFTISRDNSKNTLYLQMNSLRAEDTAVYYCAKQGENDGPFDHRGQGTLVTVS
notes: fully human VH single domain (IgHV3-23) from a UniRat heavy chain-only antibody, with R109 in framework 4 (W101R, Kabat); Human VH used as a single domain, no light chain and no Fc; also called UniAb VH (VH3-23)
Regarding B1, the binding result is given as “binds”.
